Results: patent US6835539B1, “Nucleic sequences coding for an AT2 interacting proteins interacting with the AT2 receptor and their applications” (priority 1998, dated 2004)

T1: AT2 receptor (Homo sapiens, UniProt P50052)
T1 sequence (P50052 1-363): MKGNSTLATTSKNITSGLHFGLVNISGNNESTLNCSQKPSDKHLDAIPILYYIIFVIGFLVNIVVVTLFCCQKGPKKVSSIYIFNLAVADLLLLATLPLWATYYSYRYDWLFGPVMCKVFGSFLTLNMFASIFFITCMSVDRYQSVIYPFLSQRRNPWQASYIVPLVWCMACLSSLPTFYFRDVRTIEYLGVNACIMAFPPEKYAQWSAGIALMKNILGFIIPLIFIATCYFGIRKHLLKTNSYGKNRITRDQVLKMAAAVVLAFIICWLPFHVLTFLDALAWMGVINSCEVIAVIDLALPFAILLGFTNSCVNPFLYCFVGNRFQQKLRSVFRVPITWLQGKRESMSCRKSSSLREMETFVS

T2: C-terminal end of human AT1 receptor (Leu 297-Glu 359) (Homo sapiens, UniProt P30556)
T2 construct: C-terminal end of human AT1 receptor (Leu 297-Glu 359); made in house; host or cells: bacteria, same protocol as MBP-AT2 (E. coli DH5α)
T2 sequence (P30556 297-359): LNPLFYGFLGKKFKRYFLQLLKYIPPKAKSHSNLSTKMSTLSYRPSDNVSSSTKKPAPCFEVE

T3: C-terminal end of the mouse AT2 receptor (Mus musculus, UniProt P35374)
T3 construct: expressed in transfected cells; host or cells: yeast HF7c (pGBT9 bait) or L40 (pLex9 bait)
T3 sequence (P35374 312-363): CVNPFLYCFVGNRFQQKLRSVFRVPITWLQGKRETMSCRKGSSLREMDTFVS

T4: C-terminal end of the human AT2 receptor (Asn314-Ser363) (Homo sapiens, UniProt P50052)
T4 construct: C-terminal end of the human AT2 receptor (Asn314-Ser363); made in house; host or cells: E. coli DH5α (pMAL-c2-AT2)
T4 sequence (P50052 314-363): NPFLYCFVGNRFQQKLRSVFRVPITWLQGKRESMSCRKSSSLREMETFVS

B1: ATIPmouse-short: Polypeptide (SEQ ID NO:6) encoded by the 354 bp ATIP clone (SEQ ID NO:5); AT2 interacting protein fragment, used as a GST fusion (protein)
chain: HQTDRTELENRLKDLYTAECEKLQSIYIEEAEKYKTQLQEQFDNLNAAHETTKLEIEASHSEKVELLKKTYETSLSEIKKSHEMEKKSLEDLLNEKQESLEKQINDLKSENDALNERL
modifications: used as GST fusion; Insert identified by yeast two hybrid screening of a M. musculus fetal cDNA library

Columns and labels:
AT2 receptor [1] = target: T1, AT2 receptor; experiment: Inhibition of insulin-induced tyrosine phosphorylation in CHO-hAT2-ATIP cells; assay type: cell-based; parameters: a plasmid containing the region encoding the human AT2 receptor; expressed in transfected cells; host or cells: CHO-hAT2 cells stably transfected with ATIPmouse-long; conditions: 100 nM, insulin 0.05, 0.01, 0.005, 0.001 μg/ml, reproduced 3 times
Source text: (§1) For that, a stable clone of CHO-hAT2 cells expressing the ATIPmouse-long protein (CHO-hAT2-ATIP), obtained according to the methodology described in Example 4, was used; the functional test for the activity of the AT2 receptor developed on the CHO-hAT2 clone which consists in inhibiting the phosphorylation of the IRβ subunit of the insulin receptor induced by its ligand, was reproduced.
The CHO-hAT2 cells are inoculated at a density of 3×10^6 cells per dish having a diameter of […]. They are made quiescent by 16 hours of deprivation before being treated. The treatment consists in bringing into contact for 5 minutes with 15 ml of F12 medium containing insulin supplemented or otherwise with CGP42112 (selective agonist of the AT2 receptor). […] After bringing into contact and washings, the lectin beads coupled to Sepharose (Pharmacia) are recovered in sample buffer containing SDS and the eluted proteins are analysed in SDS-PAGE followed by immunoblotting with anti-phosphotyrosine antibodies (Upstate Biotechnology, Inc.) or anti-IRβ antibodies (described in Issad, T. et al., cited above). […]

AT2 receptor [2] = target: T1, AT2 receptor; experiment: Inhibition of insulin-induced tyrosine phosphorylation in CHO-hAT2 cells; assay type: cell-based; parameters: a plasmid containing the region encoding the human AT2 receptor; expressed in transfected cells; host or cells: CHO cells deficient in dihydrofolate reductase (clone CHO-hAT2)
Source text: as §1
The CHO-hAT2 cells are inoculated at a density of 3×10^6 cells per dish having a diameter of […]. They are made quiescent by 16 hours of deprivation before being treated. […] After treatment, the cells are solubilized in lysis buffer containing: 50 mM Hepes, pH 7.6, 1% Triton X-100, 20 mM EDTA, 30 mM sodium pyrophosphate, 30 mM sodium fluoride, 2 mM benzamidine, 1 mM sodium orthovanadate, 1 mM phenylmethylsulphonyl fluoride and 1 μg/ml of aprotinin, pepstatin, antipain and leupeptin. The lysates are then subjected to purification on a wheatgerm lectin column, according to the protocol described in Issad, T. et al., (Eur. J. Biochem. 1995, 234, 108-115). After bringing into contact and washings, the lectin beads coupled to Sepharose (Pharmacia) are recovered in sample buffer containing SDS and the eluted proteins are analysed in SDS-PAGE followed by immunoblotting with anti-phosphotyrosine antibodies (Upstate Biotechnology, Inc.) or anti-IRβ antibodies (described in Issad, T. et al., cited above).

[3] = target: T5, C-terminal end of the human β2 adrenergic receptor (Homo sapiens, UniProt P07550); experiment: Two-hybrid selectivity test with a control bait; assay type: binding
T5 construct: C-terminal end of the human β2-adrenergic receptors; expressed in transfected cells
Source text: (§2) Protein X: C-terminal end of the human β2-adrenergic receptors, rat AT1 or human bradykinin.

[4] = system: C-terminal end of the rat AT1 receptor; experiment: Two-hybrid selectivity test with a control bait; assay type: binding
Source text: as §2

[5] = system: C-terminal end of the human bradykinin receptor; experiment: Two-hybrid selectivity test with a control bait; assay type: binding
Source text: as §2

[6] = target: T2, C-terminal end of human AT1 receptor (Leu 297-Glu 359); experiment: In vitro GST pull-down of MBP-AT1 on GA-GST-ATIPmouse-short beads; assay type: binding; conditions: SDS-PAGE and anti-MBP immunoblot; FIG. 10
[7] = target: T3, C-terminal end of the mouse AT2 receptor; experiment: Two-hybrid interaction of the ATIP clone with the AT2 C-terminal bait; assay type: binding; conditions: baits in pGBT9 and pLEX9; mouse foetal cDNA library clone
Source text: In the two-hybrid system, the DNA-binding domain is fused with a protein X and the activation domain is fused with a protein Y. If, and only if, X and Y interact, a complex is formed which reconstitutes a functional transcription factor.
Protein X: C-terminal end of the sequence encoding the mouse AT2 receptor (52 amino acids of CVNPF at the stop codon, see FIG. 1), fused with the sequence encoding the Gal4 DNA-binding domain (FIG. 2).
Insert: end of the mouse AT2 receptor (159 bp+16 bp of sites generated by PCR) inserted at the level of the EcoRI and BamHI sites of the vectors pLEX9 (Clontech) or pGBT9 (modified pGAD424 or pBTM116; A. B. Vojtek et al., Cell, 1993, 74, 205-214).
mouse foetal cDNA library (A. B. Vojtek et al., Cell, 1993, 74, 205-214) , containing inserts of 350 to 700 bp (protein Y) in the vector VP16 (FIG. 5).
HF7c (Clontech) for the bait constructed in pGBT9;
L40 for the bait constructed in pLex9.

[8] = target: T4, C-terminal end of the human AT2 receptor (Asn314-Ser363); experiment: In vitro GST pull-down of MBP-AT2 on GA-GST-ATIPmouse-short beads; assay type: binding; conditions: compared with GA-GSTalone beads; SDS-PAGE and anti-MBP immunoblot; FIG. 10
Method: For that, the fusion protein GST-ATIP as described above was produced; it is combined through its GST part with glutathione coupled to agarose beads (GA). In parallel, bacteria (DH5α) are transfected with a plasmid (pMAL-c2-AT2, derived from pMAL-c2 from New England Biolabs) encoding a fusion protein between the C-terminal end of the human AT2 receptor (Asn314-Ser363) and MBP (Maltose Binding Protein). These bacteria were cultured and the fusion protein was induced in 0.3 mM IPTG according to the protocol “pMAL Protein Fusion and Purification System” from New England Biolabs. After centrifugation of the culture at 4000 g and solubilization of the pellet obtained in “column buffer” (20 mM Tris-HCl, 200 mM NaCl, 1 mM EDTA), another centrifugation at 9000 g made it possible to recover a supernatant containing a high concentration of MBP-AT2. This supernatant was brought into contact, for 3 hours at […], with glutathione agarose beads coupled to GST protein alone after addition of NaCl so as to have 300 mM final NaCl. This preincubation step makes it possible to remove the nonspecific interactions which may exist between ATIP and GA-GST. The supernatant recovered was brought into contact with the GA-GST-ATIPmouse-short or GA-GSTalone beads overnight at 4° C. After contact, the beads were rinsed three times in 20 mM Tris-HCl buffer, 300 mM NaCl, 1 mM EDTA and once in “column buffer”.

| Molecule | inhibition of the phosphorylation of the insulin receptor (AT2 receptor [1]) | inhibition of the phosphorylation of IRβ induced by insulin (AT2 receptor [2]; CHO-hAT2 cells, 100 nM, all insulin doses between 0.1 and 0.001 μg/ml, 5 minutes) | inhibition of the phosphorylation of IRβ (AT2 receptor [2]; CHO-hAT2 cells, induced by 0.01 μg/ml insulin, n=7) [%] | inhibition of insulin-induced tyrosine phosphorylation of SIRP (120 kDa) (AT2 receptor [2]; clone CHO-hAT2) | two-hybrid interaction with the C-terminal end of the human β2 adrenergic receptor [3] | two-hybrid interaction with the C-terminal end of the rat AT1 receptor [4] | two-hybrid interaction with the C-terminal end of the human bradykinin receptor [5] | retention of the MBP-AT1 protein on GA-GST-ATIPmouse-short beads [6] | interaction with the C-terminal end of AT2 in the two-hybrid system [7] | retention of the MBP-AT2 protein on GA-GST-ATIPmouse-short beads [8] |
| --- | --- | --- | --- | --- | --- | --- | --- | --- | --- | --- |
| CGP42112 | not observed | inhibit | 64±4 | inhibited | – | – | – | – | – | – |
| B1 | – | – | – | – | negative results | negative results | negative results | not retained in a specific manner | interacts specifically | specific retention |
